± gives the standard deviation of the averaged measurements.
Tested on: ATP
Assay: switch fluorescence ratio, 500 uM ATP over buffer (Cy3 cluster intensity, sum of 5 cycles each) (fold (ratio)); higher = stronger signal-on switching upon ATP binding; sequences stand for … in TCGTCGGCAGCGTCAGATGTGTATAAGAGACAGTTTTTTTTTTTTTTTTTTTTTTTTT…TC
Settings: aptamer strand: ATP DNA aptamer (quencher-CACCTGGGGGAGTATTGCGGAGGAAGG + anchor), 100 nM annealed; ATP concentration: 500 uM
Method in brief: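 Switching-strand clusters labelled with Cy3 on a modified Illumina MiSeq flow-cell were annealed to 100 nM quencher-labelled ATP aptamer, imaged in selection buffer, and re-imaged after 15 min with 500 uM ATP at 22 °C. This was done over five cycles with NaOH stripping and re-annealing in between. The fluorescence ratio is summed target-cycle over summed buffer-cycle Cy3 intensity per cluster, averaged per switch-domain sequence, excluding clusters outside 100-1000 RFU.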
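Further: ATP exposure 15 min at 22 °C before imaging.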

Row | Sequence | switch fluorescence ratio
1 | ACGACGTTGA | 1.07 ± 0.032
2 | ACGACTGCGT | 1.0213 ± 0.00018
3 | ACGACTTTTT | 1.03 ± 0.063
4 | ACGAGAAGTT | 1.1 ± 0.073
5 | ACGAGCCTAG | 1.33 ± 0.058
6 | ACGAGCGTGG | 1 ± 0.011
7 | ACGAGGATGC | 1.09 ± 0.024
8 | ACGAGGGGGG | 1.02 ± 0.02
9 | ACGAGGTTCT | 1.016 ± 0.003
10 | ACGAGTCTGC | 0.96588 ± 0.00086
11 | ACGAGTGGGC | 1 ± 0.063
12 | ACGAGTGTCG | 0.964 ± 0.04
13 | ACGATAGAGG | 1.14 ± 0.015
14 | ACGATCAAGG | 1.13 ± 0.024
15 | ACGATCAGCG | 1.022 ± 0.0037
16 | ACGATCATTT | 1.048 ± 0.0024
17 | ACGATCGAAA | 1.24 ± 0.019
18 | ACGATGAACG | 1.04 ± 0.021
19 | ACGATGAAGA | 1.009 ± 0.0026
20 | ACGATGATCT | 1.06 ± 0.019
21 | ACGATGGAAT | 1.45 ± 0.056
22 | ACGATTAGAC | 1.12 ± 0.029
23 | ACGATTGGTA | 1.03 ± 0.092
24 | ACGATTTGGT | 1 ± 0.013
25 | ACGATTTTAG | 1.04 ± 0.041

Row | Sequence | switch fluorescence ratio
26 | ACGATTTTTA | 1 ± 0.013
27 | ACGCCATTCT | 1.151 ± 0.0096
28 | ACGCCGTCGA | 1.035 ± 0.0099
29 | ACGCCTGGGC | 1.02 ± 0.023
30 | ACGCCTGGTC | 1.01 ± 0.059
31 | ACGCGACACC | 1.25 ± 0.058
32 | ACGCGGACGG | 1.05 ± 0.016
33 | ACGCGGAGAC | 1.24 ± 0.024
34 | ACGCTGTTGA | 1.03 ± 0.047
35 | ACGCTTGCTA | 1.02 ± 0.013
36 | ACGCTTTGCA | 0.987 ± 0.01
37 | ACGGAAAACA | 1.019 ± 0.0039
38 | ACGGAACAAG | 1.09 ± 0.12
39 | ACGGAAGTGC | 1.12 ± 0.036
40 | ACGGCACTCT | 1.55 ± 0.0028
41 | ACGGCATAAT | 1.11 ± 0.013
42 | ACGGCATTTG | 1.05 ± 0.024
43 | ACGGCTTTCG | 1.05 ± 0.097
44 | ACGGGAAGGC | 1.09 ± 0.035
45 | ACGGGAGCTT | 1.03 ± 0.041
46 | ACGGGATTAA | 1.04 ± 0.051
47 | ACGGGCCGGG | 1.02 ± 0.12
48 | ACGGGCGGCA | 1.16 ± 0.23
49 | ACGGGCGGTC | 1.01 ± 0.015
50 | ACGGGGCCGT | 0.985 ± 0.031

Row | Sequence | switch fluorescence ratio
51 | ACGGGGGAAT | 0.991 ± 0.02
52 | ACGGGGGAGC | 1.03 ± 0.043
53 | ACGGGGGGAA | 1.02 ± 0.019
54 | ACGGGGGTCC | 1.02 ± 0.025
55 | ACGGGGGTTA | 1.02 ± 0.024
56 | ACGGGGTCAG | 0.999 ± 0.026
57 | ACGGGTCCGG | 1.02 ± 0.011
58 | ACGGGTGGCT | 1 ± 0.014
59 | ACGGGTGGGG | 1.05 ± 0.051
60 | ACGGGTTAAT | 1.01 ± 0.026
61 | ACGGGTTAGA | 1.02 ± 0.036
62 | ACGGGTTGGG | 1.02 ± 0.017
63 | ACGGTCGGGC | 0.9775 ± 0.00067
64 | ACGGTCTTGG | 0.999 ± 0.015
65 | ACGGTGGGGA | 1.04 ± 0.036
66 | ACGGTGGGGG | 1.01 ± 0.025
67 | ACGGTGGGTA | 1 ± 0.038
68 | ACGGTGTATG | 0.989 ± 0.031
69 | ACGGTTCAAT | 1.05 ± 0.011
70 | ACGGTTGAG | 0.96 ± 0.036
71 | ACGTACACTT | 1.45 ± 0.074
72 | ACGTACCGGC | 1.31 ± 0.075
73 | ACGTATAGAA | 1.159 ± 0.0097
74 | ACGTATGAAA | 1.09 ± 0.059
75 | ACGTATGATA | 1.16 ± 0.056

Row | Sequence | switch fluorescence ratio
76 | ACGTATGGCT | 0.973 ± 0.021
77 | ACGTATTACA | 1.83 ± 0.87
78 | ACGTCCGATC | 1.11 ± 0.039
79 | ACGTCGTCGG | 0.964 ± 0.018
80 | ACGTCTATGT | 0.992 ± 0.0074
81 | ACGTGCCGGT | 0.99 ± 0.05
82 | ACGTGCGGAG | 1.01 ± 0.016
83 | ACGTGCGGGC | 1.05 ± 0.013
84 | ACGTGCTTAT | 0.976 ± 0.013
85 | ACGTGGGGGT | 1.01 ± 0.011
86 | ACGTGGGTAG | 0.987 ± 0.041
87 | ACGTGGTGTG | 1.015 ± 0.0075
88 | ACGTGGTTGA | 1.05 ± 0.026
89 | ACGTGTAAGC | 1.03 ± 0.035
90 | ACGTGTGGGC | 1.02 ± 0.017
91 | ACGTGTTTGT | 1.03 ± 0.018
92 | ACGTTAGGGA | 1.07 ± 0.091
93 | ACGTTATGCT | 1.17 ± 0.081
94 | ACGTTATGTG | 1.0491 ± 0.00035
95 | ACGTTCGTAC | 1.04 ± 0.012
96 | ACGTTGGCGT | 0.966 ± 0.041
97 | ACGTTGGGGC | 1.04 ± 0.027
98 | ACGTTGGGTC | 1.02 ± 0.06
99 | ACGTTGTTTG | 0.983 ± 0.02
100 | ACGTTTAGTG | 1.02 ± 0.016
